The source of these data is article PMC12650317 (Biomolecules, 2025).

The target of assay [1] is BVDV NS5A recombinant protein (Bovine viral diarrhea virus 1, RefSeq …, UniProt P19711). The assay can be described thus: ELISA; indirect ELISA (i-ELISA); NS3 or NS5A coated on 96-well plates (10 ug/mL for the panning and serum ELISA); OD450 read; nanobody targeting PRRSV as negative control.
For assay [2], the target named is T1, BVDV NS3 recombinant protein (Bovine viral diarrhea virus 1, RefSeq …).
T1 chain: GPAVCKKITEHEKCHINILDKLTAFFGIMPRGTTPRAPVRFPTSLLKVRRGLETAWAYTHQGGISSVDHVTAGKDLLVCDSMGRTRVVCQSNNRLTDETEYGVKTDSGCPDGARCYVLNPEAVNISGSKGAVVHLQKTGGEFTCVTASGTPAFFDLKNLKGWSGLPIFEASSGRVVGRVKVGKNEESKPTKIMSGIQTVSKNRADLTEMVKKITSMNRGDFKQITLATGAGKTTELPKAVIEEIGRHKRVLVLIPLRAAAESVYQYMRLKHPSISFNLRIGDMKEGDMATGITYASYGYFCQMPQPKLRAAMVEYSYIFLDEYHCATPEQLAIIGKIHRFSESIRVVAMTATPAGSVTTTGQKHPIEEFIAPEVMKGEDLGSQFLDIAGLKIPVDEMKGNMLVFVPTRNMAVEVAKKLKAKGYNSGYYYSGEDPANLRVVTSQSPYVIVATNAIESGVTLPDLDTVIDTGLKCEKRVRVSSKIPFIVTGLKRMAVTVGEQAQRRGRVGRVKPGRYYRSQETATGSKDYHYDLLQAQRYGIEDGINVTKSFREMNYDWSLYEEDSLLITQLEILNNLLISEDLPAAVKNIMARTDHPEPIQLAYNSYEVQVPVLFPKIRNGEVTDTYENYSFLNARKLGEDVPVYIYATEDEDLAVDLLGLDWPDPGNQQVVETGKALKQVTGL
Described as above.

Sequence of BVDV NS5A recombinant protein (P19711 2774-3269): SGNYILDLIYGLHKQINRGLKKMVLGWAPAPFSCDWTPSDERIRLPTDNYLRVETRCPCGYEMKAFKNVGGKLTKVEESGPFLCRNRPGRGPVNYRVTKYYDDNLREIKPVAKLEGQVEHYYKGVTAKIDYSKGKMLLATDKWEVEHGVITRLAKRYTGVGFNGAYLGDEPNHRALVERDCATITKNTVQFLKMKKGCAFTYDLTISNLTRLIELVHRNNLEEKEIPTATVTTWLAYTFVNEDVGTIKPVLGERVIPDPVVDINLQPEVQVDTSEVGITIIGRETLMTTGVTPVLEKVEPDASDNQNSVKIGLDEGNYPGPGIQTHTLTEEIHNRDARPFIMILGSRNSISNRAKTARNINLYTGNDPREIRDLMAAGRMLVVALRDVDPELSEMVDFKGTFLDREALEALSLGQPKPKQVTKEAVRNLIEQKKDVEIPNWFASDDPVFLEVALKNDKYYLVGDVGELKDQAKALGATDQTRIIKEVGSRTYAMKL

B1: Nb10 (VHH)
VHH: QVQLQESGGGLVQPGGSLRLSCAASGETARSGACGWFRQAPGKEREGVASINRYGFRTYADSVKGRFTISTDNAKNTVDLQMSNLRPEDTAAYYCAADSLTFWSAPCCSSTSPGTWGQGTQVTVSS
notes: also called nanobody Nb10
For B1, the binding result in assay [1] is reported as “binds”.

B2: Nb22 (VHH)
VHH: QVQLQESGGGLVQPGGSLRLSCRASGYTSCMAWFRQAPKEREGVASINSDGSTAYADSVQGRFTISRDNTMNTLYLQMNSLKPEDTAMYYCAAERPSSCLPRNIWVDTNYWGQGTQVTVSS
notes: also called nanobody Nb22
Consider B2, for which the binding result in assay [2] is reported as “binds”.

B3: Nb11 (VHH)
VHH: QVQLQESGGGSVQPGGSRRLSCEGSGETLGYRRQTWFRQAPGKEREGVSCISSLDDGTYYKDSVKGRFTISRDNANKMVYLQMNSLEPEDTAIYYCAADPERSSYSGPLGSLGYSYWGQGTQVTVSS
notes: also called nanobody Nb11
On to B3, for which the binding result in assay [1] was “binds”.

B4: Nb15 (VHH)
VHH: QVQLQESGGGLVQPGGSLRLSCAASGGSLTYYCMAWFRQTPGKEREWVSCISNYGFTINYADSVKGRFSISRDNAKNTVYLAMHIPEPEDTGVYVCADLSFEHLYYCSTAQSEGSEWGQGTQVTVSS
notes: also called nanobody Nb15
B4: the binding result in assay [1] is “binds”.

B5: Nb19 (VHH)
VHH: QVQLQESGGGLVQPGGSLRLSCAASGFTFQTYSMGWVRQAPGKGLEWVSSISGDGSTYYSDSVKGRFTISTDNANTLYLQMNSLKSEDTAVYYCAKERSPADYRNWLMPYWGKGTLVTVSS
notes: also called nanobody Nb19
B5: the binding result in assay [2] is reported as “binds”.
